Measured values taken from doi:10.1101/2025.02.16.638521.

Molecular target: biotinylated Sos1^PRS peptide
Experiment: BLI

Which Kd does the source give for “GST-tagged Grb2^SH3C (C-terminal SH3 domain of Grb2) (domain or fragment)” here?
Its Kd is 14.7 µM.
